Reference: patent US20190389955A1

Target: human FLT3/FLK2 receptor protein (human) (UniProt P36888)
Assay: flow cytometry on SP2/0 cells expressing human FLT3/FLK2; same table: unstained SP2/0 clone 3 6063, secondary Ab 9522

human FLT3/FLK2 receptor protein (human), sequence (P36888 27-993): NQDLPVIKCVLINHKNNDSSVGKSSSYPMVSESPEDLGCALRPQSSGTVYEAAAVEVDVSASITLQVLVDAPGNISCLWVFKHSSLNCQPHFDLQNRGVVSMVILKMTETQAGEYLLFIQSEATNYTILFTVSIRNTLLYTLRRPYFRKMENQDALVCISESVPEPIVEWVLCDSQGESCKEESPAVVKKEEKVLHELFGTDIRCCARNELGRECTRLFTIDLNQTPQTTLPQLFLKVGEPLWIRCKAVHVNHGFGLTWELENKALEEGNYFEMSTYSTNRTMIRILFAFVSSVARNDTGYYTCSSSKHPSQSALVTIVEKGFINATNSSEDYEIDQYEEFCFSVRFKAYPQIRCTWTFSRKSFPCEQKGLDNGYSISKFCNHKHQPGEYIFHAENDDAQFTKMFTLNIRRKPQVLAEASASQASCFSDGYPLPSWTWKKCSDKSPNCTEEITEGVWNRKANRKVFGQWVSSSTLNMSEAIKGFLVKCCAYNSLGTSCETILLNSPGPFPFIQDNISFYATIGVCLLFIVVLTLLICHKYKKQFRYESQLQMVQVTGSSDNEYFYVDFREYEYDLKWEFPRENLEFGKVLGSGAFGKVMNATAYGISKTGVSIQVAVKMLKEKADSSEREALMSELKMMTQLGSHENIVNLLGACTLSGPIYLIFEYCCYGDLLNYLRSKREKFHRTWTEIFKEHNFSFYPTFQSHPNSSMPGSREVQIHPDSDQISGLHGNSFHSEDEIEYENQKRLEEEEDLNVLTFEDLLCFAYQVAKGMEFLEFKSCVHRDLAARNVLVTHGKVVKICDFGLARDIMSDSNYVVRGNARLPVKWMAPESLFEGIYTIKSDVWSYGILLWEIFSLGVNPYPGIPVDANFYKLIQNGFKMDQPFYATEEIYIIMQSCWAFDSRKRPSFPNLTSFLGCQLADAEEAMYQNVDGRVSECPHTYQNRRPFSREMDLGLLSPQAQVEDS

MFI: 11500
Substance: ISOTYPE CTR (antibody)
